Data: patent US20110104143

B1: Active Caspase-8 (protein)
chain: SESQTLDKVYQMKSKPRGYCLIINNHNFAKAREKVPKLHSIRDRNGTHLDAGALTTTFEELHFEIKPHDDCTVEQIYEILKIYQLMDHSNMDCFICCILSHGDKGIIYGTDGQEAPIYELTSQFTGLKCPSLAGKPKVFFIQACQGDNYQKGIPVETDSEEQPYLEMDLSSPQTRYIPDEADFLLGMATVNNCVSYRNPAEGTWYIQSLCQSLRERCPRGDDILTILTEVNYEVSNKDDKKNMGKQMPQPTFTLRKKLVFPSD
B2: Active Caspase-2 (protein)
chain: GPVCLQVKPCTPEFYQTHFQLAYRLQSRPRGLALVLSNVHFTGEKELEFRSGGDVDHSTLVTLFKLLGYDVHVLCDQTAQEMQEKLQNFAQLPAHRVTDSCIVALLSHGVEGAIYGVDGKLLQLQEVFQLFDNANCPSLQNKPKMFFIQACRGDETDRGVDQQDGKNHAGSPGCEESDAGKEKLPKMRLPTRSDMICGYACLKGTAAMRNTKRGSWYIEALAQVFSERACDMHVADMLVKVNALIKDREGYAPGTEFHRCKEMSEYCSTLCRHLYLFPGHPPT

How the values were obtained:
[1] = molecular target: DDX3 (endogenous, full-length human DDX3 in tumor cell lysates), O00571
Sequence of DDX3 (endogenous, full-length human DDX3 in tumor cell lysates), O00571 (O00571 whole entry, looked up): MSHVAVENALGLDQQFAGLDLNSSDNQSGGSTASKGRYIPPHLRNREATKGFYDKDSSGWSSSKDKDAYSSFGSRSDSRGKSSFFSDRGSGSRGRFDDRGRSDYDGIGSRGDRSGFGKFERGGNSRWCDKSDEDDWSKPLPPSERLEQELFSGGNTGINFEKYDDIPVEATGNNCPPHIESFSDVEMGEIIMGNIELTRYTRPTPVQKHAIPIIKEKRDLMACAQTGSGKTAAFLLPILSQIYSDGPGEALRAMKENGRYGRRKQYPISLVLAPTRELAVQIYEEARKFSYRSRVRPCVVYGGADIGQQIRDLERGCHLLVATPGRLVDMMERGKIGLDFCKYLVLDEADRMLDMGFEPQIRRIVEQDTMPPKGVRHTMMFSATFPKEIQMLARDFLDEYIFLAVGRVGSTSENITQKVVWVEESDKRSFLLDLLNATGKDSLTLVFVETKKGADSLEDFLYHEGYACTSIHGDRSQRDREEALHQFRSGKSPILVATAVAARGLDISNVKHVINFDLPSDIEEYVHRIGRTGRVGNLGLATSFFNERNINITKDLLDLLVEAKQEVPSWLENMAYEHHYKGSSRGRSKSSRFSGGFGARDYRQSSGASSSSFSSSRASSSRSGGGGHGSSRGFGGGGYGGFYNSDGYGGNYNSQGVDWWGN

Sequence of cIAP1, Q13490 (Q13490 whole entry): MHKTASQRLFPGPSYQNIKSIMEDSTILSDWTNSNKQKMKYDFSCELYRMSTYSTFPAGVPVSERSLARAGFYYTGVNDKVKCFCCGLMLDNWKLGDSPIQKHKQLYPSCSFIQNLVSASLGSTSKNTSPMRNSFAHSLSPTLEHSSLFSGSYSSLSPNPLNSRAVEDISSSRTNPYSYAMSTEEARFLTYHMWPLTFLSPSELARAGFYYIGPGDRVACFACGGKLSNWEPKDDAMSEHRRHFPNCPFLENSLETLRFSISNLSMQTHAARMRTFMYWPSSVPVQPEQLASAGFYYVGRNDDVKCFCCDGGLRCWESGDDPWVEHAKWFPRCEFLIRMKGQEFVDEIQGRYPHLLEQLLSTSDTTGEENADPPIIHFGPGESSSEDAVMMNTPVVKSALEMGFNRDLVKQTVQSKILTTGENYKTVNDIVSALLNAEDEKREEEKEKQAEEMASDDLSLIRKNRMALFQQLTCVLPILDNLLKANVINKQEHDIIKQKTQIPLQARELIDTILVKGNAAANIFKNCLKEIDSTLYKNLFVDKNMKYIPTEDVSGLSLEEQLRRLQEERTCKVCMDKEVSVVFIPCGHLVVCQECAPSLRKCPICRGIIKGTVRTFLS

| Protein | caspase-8 protease activity on the fluorogenic substrate Ac-IETD-AMC (cIAP1, Q13490) | cleavage of DR5-associated DDX3 by active caspase, Western blot with anti-DDX3 antibody [1] |
| --- | --- | --- |
| B1 | purified cIAP1 also suppressed caspase-8 protease activity completely | DDX3 cleavage by caspase-8 in resistant cells was highly attenuated compared to sensitive cells |
| B2 |  | caspase-2 exhibited similar protease potential in both cells |
